We go through 134 substances from the supplement of paper PMC12042874.

± gives the uncertainty stated by the source.

The data set can be described thus: amyloid nucleation score (Sup35N fusion, yeast selection) (log enrichment); library NNK3; higher = more nucleation; inactive = no reads after selection. In short, it runs like this: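 Sup35N fusions to peptides of 20 random codons were expressed in psi-negative yeast, induced 24 hours with 100 μM copper sulfate, and grown 7 days at 30°C on medium lacking adenine and uracil. Input and output plasmid inserts were sequenced by Illumina. The nucleation score is the DiMSum log enrichment of output over input reads, centred on the mode score of non-aggregating sequences. Sequences with under 100 input reads were excluded.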
Turning to MVSNNGFIRSLVENPTPIQD, the amyloid nucleation score result is “inactive”.

Regarding RACYLF, the amyloid nucleation score entry is “inactive”.

In the case of QVNKFCYCMVDKLVVVH, the amyloid nucleation score was found to be 2.27 ± 0.074.

VLLVHGKEWTEMLAHTLRCG: the amyloid nucleation score entry was “inactive”.

As for YVQSLNR, the amyloid nucleation score result was “inactive”.

Turning to MILLLGLDRKHSSGESKALI, the amyloid nucleation score result is “inactive”.

As for LCKCLLIEFCYVVK, the amyloid nucleation score amounted to 0.772 ± 0.12.

GRSFCVAMVVIEGVLYRDLS: the amyloid nucleation score came out at 0.441 ± 0.32.

Regarding SSMYISAPSLCYLDFGLEKW, the amyloid nucleation score result is “inactive”.

Regarding ILYRCDCAFFYPLGLLFSRC, the amyloid nucleation score result was “inactive”.

With FVRPFGRVFIFQKDFSIKVC, the amyloid nucleation score result was “inactive”.

Turning to PWIGVNINSSVLVMVFGGGM, the amyloid nucleation score was 1.97 ± 0.079.

With EEVMMRAINQEAPCEPQLRV, the amyloid nucleation score result is “inactive”.

Turning to RSLFHSAFEFRFLGLTECTY, the amyloid nucleation score entry is “inactive”.

As to CWTTINVSGCPNVGGGTVLQ, the amyloid nucleation score is 0.9 ± 0.17.

On to LSELVLSWMQMDSCTRFDMC, for which the amyloid nucleation score entry is “inactive”.

For FLPWDFKASKKEPYSKYMNL, the amyloid nucleation score entry was “inactive”.

As to LMKFFINVKVSGGVTCVRIN, the amyloid nucleation score entry is “inactive”.

Take VVDLIFLSLF: the amyloid nucleation score result is “inactive”.

The substance LLTFALIL returned an amyloid nucleation score of 0.462 ± 0.19.

CMFRLMIPSIKTNAISIALC registered an amyloid nucleation score of 0.068 ± 0.9.

Consider SISRLVISF, for which the amyloid nucleation score entry was “inactive”.

Take YSRSTWVRIWFLLVSLLPVG: the amyloid nucleation score entry was “inactive”.

For the substance LIQPKSR, the amyloid nucleation score entry is “inactive”.

PFHSVYVDDDAWNGVCLPAV: the amyloid nucleation score entry was “inactive”.

As for DSSFLATFFILVTGCCLLVD, the amyloid nucleation score entry is “inactive”.

With CWEFYVVLYRLLGICKIRVL, the amyloid nucleation score entry was “inactive”.

Regarding FTWARETVPVVQNWFGTREV, the amyloid nucleation score entry is “inactive”.

Consider SLWVSI, for which the amyloid nucleation score entry was “inactive”.

In the case of PFSSFWVTRTLIALWYSLRT, the amyloid nucleation score entry is “inactive”.

As for NLVWFHIATEVIERNVGGGN, the amyloid nucleation score result is “inactive”.

Turning to WMMNIDYTNSW, the amyloid nucleation score entry is “inactive”.

For LFFYRMYDGTWKGDLYIASE, the amyloid nucleation score entry was “inactive”.

Consider LSMFGGNASALL, for which the amyloid nucleation score entry was “inactive”.

In the case of IVVVAFKSPSV, the amyloid nucleation score worked out at 0.217 ± 0.32.

Consider WKCVLMTSATHMPQYPHGCG, for which the amyloid nucleation score entry was “inactive”.

SGIQVRGQTSIVLLNF: the amyloid nucleation score was found to be 2.41 ± 0.052.

As for YTRLRNVDTRAFMDSPDILW, the amyloid nucleation score entry is “inactive”.

Turning to PMGNRAWFPFLYEDQKPRIS, the amyloid nucleation score result is “inactive”.

In the case of VFMNKGQRV, the amyloid nucleation score result was “inactive”.

As to HVMGANREPF, the amyloid nucleation score entry was “inactive”.

Regarding VRVSRNGSVLY, the amyloid nucleation score result was “inactive”.

In the case of FSLRLPYFA, the amyloid nucleation score result was “inactive”.

For GVVKRQRLWTVGMNPKIEAW, the amyloid nucleation score entry is “inactive”.

For SGPSGSRCGDITLDTPPVLL, the amyloid nucleation score result is “inactive”.

Turning to EVSWD, the amyloid nucleation score result was “inactive”.

As to CMVLRYVTVVSGMSQAKRMY, the amyloid nucleation score entry was “inactive”.

On to SYNCA, for which the amyloid nucleation score result was “inactive”.

On to WDNITRNWRSCPHQMSLRYL, for which the amyloid nucleation score was -0.148 ± 1.

For the substance CNDGSHCLGYY, the amyloid nucleation score result is “inactive”.

As for HWYGTMLKLFNVLKPMGPKI, the amyloid nucleation score result is “inactive”.

Turning to SVDDFR, the amyloid nucleation score entry was “inactive”.

Take HTGMHCTMGESRTSV: the amyloid nucleation score was found to be 0.375 ± 0.18.

Take ACTLDTLFSFVPSHNWSGQK: the amyloid nucleation score result is “inactive”.

Turning to RGIDYSHTL, the amyloid nucleation score result was “inactive”.

For ILFGGRNGKWLVEPGLSRVL, the amyloid nucleation score was found to be 0.84 ± 0.23.

As to VGNQKIIMRGALELDRELTC, the amyloid nucleation score entry is “inactive”.

THVSSGYRYEEILWWHSRGW: the amyloid nucleation score result is “inactive”.

Take SKFSSC: the amyloid nucleation score result is “inactive”.

LKGVKCVHSCWELPR: the amyloid nucleation score was -0.117 ± 1.1.

Consider SCGLGLLAVVEKCVVTHRFF, for which the amyloid nucleation score entry is “inactive”.

Substance RLLIMSGNNGLLGPSYNAIV showed an amyloid nucleation score of -0.01 ± 0.78.

Consider NLRWSLIFMFGDCWGACGCG, for which the amyloid nucleation score was determined as 0.476 ± 0.23.

As for EYHKMTGIFAPLFILIMVV, the amyloid nucleation score entry is “inactive”.

With DSCVPIYVDTYGGDLDVNGG, the amyloid nucleation score entry is “inactive”.

Regarding SIPLGFGMLSDDKSI, the amyloid nucleation score entry is “inactive”.

On to CWRVCGARYLWA, for which the amyloid nucleation score entry was “inactive”.

For the substance MKTSNYMVRQCAGIPASTNR, the amyloid nucleation score result was “inactive”.

CNCVAKDKVMLHVSRRRADF had an amyloid nucleation score of 0.201 ± 0.72.

Take CYRCVCFLLCGFVQSDCYDD: the amyloid nucleation score entry was “inactive”.

For the substance YLVFNQY, the amyloid nucleation score was 1.17 ± 0.086.

FLRSSVCA: the amyloid nucleation score result is “inactive”.

As for AIVFNFDYLLYLQNRSNLMH, the amyloid nucleation score result was “inactive”.

As for SSGFSKSKYYICVLQFVGVV, the amyloid nucleation score entry is “inactive”.

LFMMCGHMEYAIVKNRVDKS: the amyloid nucleation score came out at 0.016 ± 0.46.

On to MINCISNMVISIGSKRTYPS, for which the amyloid nucleation score came to 2.5 ± 0.068.

Take YPLFMDYMLTCVHM: the amyloid nucleation score result is “inactive”.

In the case of LYGISL, the amyloid nucleation score entry is “inactive”.

With YNKGFALIRIVRQTERRLHT, the amyloid nucleation score entry was “inactive”.

For the substance FLNRSTAIWKYRLIAQRVGD, the amyloid nucleation score entry is “inactive”.

Consider ITNCLTSACRTSLFMKTQII, for which the amyloid nucleation score result is “inactive”.

For GVSMERLKFDIVL, the amyloid nucleation score entry is “inactive”.

Consider GWWRSFPLQFKSPVYLNRLC, for which the amyloid nucleation score result is “inactive”.

With RLCNHKILDPACVLTSQVPI, the amyloid nucleation score entry is “inactive”.

In the case of CIYWLEF, the amyloid nucleation score was found to be 1.57 ± 0.084.

Take LQKCNWRRMVGRNQCWGKAR: the amyloid nucleation score was determined as 0.89 ± 0.19.

AVVVIQRYLAVHCWVFGERI registered an amyloid nucleation score of -0.57 ± 0.93.

As to VLVIIKSD, the amyloid nucleation score entry is “inactive”.

Take WLHFCHSAPSEYFVIMRMCK: the amyloid nucleation score result was “inactive”.

GCTCQ displayed an amyloid nucleation score of 1.21 ± 0.15.

Consider YIIRENLW, for which the amyloid nucleation score entry was “inactive”.

As to SLFLLFLWYGINDTYLVYFV, the amyloid nucleation score result was “inactive”.

Consider SLWNDFMCQSCLGVIVNGAA, for which the amyloid nucleation score came to 0.253 ± 0.6.

Take LFLMLG: the amyloid nucleation score result was “inactive”.

As for HQVKVIVCCVTYVVQYVVMM, the amyloid nucleation score result was “inactive”.

The substance VISGNNVCSIRSDFRKIFFY came in with an amyloid nucleation score of 0.762 ± 0.17.

For LFANTYVV, the amyloid nucleation score result is “inactive”.

As to CYPTSFGCFFVFFWYYVYCG, the amyloid nucleation score result was “inactive”.

As to EVKAMTWLVIVETIVFMS, the amyloid nucleation score result is “inactive”.

Consider GTGTRSHTLA, for which the amyloid nucleation score entry was “inactive”.

YYVLPASG: the amyloid nucleation score entry is “inactive”.

Regarding LHRCSLSKNDSAQSMMLTGC, the amyloid nucleation score entry was “inactive”.

In the case of TVTCANSCLCRLSRMSCVVL, the amyloid nucleation score result is “inactive”.

On to LLWLKL, for which the amyloid nucleation score result was “inactive”.

Take NPMTHYHMIHRSQGNCLLRR: the amyloid nucleation score entry is “inactive”.

As to YVNRYLLYFSFFTFANMCGS, the amyloid nucleation score was 2.05 ± 0.055.

In the case of TTQILAL, the amyloid nucleation score result is “inactive”.

Take VEFTN: the amyloid nucleation score entry is “inactive”.

On to TTLQEDGYRDACGYMASVFW, for which the amyloid nucleation score result is “inactive”.

Consider LQPCKNMSTLSQNPTLRCPF, for which the amyloid nucleation score entry was “inactive”.

In turn, SGGYDQSQALNRLVGWRVYC showed an amyloid nucleation score of -0.301 ± 1.

Regarding WGLWSVSVCWMRLFPGY, the amyloid nucleation score result is “inactive”.

On to TQSFWIARYTQLVCPRLCQN, for which the amyloid nucleation score entry was “inactive”.

On to RVRVYYGQDWYYKMLLARTI, for which the amyloid nucleation score was -0.379 ± 0.84.

Take GLDRRKICKLHGYGNS: the amyloid nucleation score entry was “inactive”.

As for TRMEICCKGYKGNVPKFAVY, the amyloid nucleation score result is “inactive”.

VSGMDCSGGFASVESMASYR: the amyloid nucleation score entry is “inactive”.

As for DVQCGVIMRGLDKYFDLNSA, the amyloid nucleation score entry is “inactive”.

Take RLVRIW: the amyloid nucleation score result is “inactive”.

Take VMTITLVLKWYGLLT: the amyloid nucleation score entry was “inactive”.

IANTHFIIM yielded an amyloid nucleation score of 1.14 ± 0.13.

SCGLLWCD had an amyloid nucleation score of -0.43 ± 1.2.

WIMISKSSMPMTPDAVQAMG: the amyloid nucleation score result is “inactive”.

Turning to FYNFWWCI, the amyloid nucleation score amounted to 1.87 ± 0.064.

For LKVRLALLCRSEQRSPSTEV, the amyloid nucleation score entry is “inactive”.

Regarding SINGRDSQG, the amyloid nucleation score result was “inactive”.

As for INSDSSQFSYSSLGKVIGMY, the amyloid nucleation score entry is “inactive”.

For TIISCFREKIGLSRM, the amyloid nucleation score result is “inactive”.

Consider CELYHMNRDF, for which the amyloid nucleation score result was “inactive”.

On to MRTNTPIFLVLGKIS, for which the amyloid nucleation score entry is “inactive”.

With SNMNV, the amyloid nucleation score entry is “inactive”.

On to LSLTRNSH, for which the amyloid nucleation score result is “inactive”.

In the case of DCFMGPLVSNCGFYECRLSV, the amyloid nucleation score result was “inactive”.

As to YNFNV, the amyloid nucleation score result was “inactive”.
